Test results reported in patent US7291458B2, “Leptin-mediated gene-induction” (Vlaams Interuniversitair Instituut Voor Biotechnologie VZW, priority 1998, dated 2007).

Target: T1, long isoform of the mouse leptin receptor (Mus musculus, UniProt P48356)
T1 construct: expressed in transfected cells; host or cells: PC12 (rat pheochromocytoma), transient electroporation with pMET7-mLRlo
T1 sequence (P48356 22-1162): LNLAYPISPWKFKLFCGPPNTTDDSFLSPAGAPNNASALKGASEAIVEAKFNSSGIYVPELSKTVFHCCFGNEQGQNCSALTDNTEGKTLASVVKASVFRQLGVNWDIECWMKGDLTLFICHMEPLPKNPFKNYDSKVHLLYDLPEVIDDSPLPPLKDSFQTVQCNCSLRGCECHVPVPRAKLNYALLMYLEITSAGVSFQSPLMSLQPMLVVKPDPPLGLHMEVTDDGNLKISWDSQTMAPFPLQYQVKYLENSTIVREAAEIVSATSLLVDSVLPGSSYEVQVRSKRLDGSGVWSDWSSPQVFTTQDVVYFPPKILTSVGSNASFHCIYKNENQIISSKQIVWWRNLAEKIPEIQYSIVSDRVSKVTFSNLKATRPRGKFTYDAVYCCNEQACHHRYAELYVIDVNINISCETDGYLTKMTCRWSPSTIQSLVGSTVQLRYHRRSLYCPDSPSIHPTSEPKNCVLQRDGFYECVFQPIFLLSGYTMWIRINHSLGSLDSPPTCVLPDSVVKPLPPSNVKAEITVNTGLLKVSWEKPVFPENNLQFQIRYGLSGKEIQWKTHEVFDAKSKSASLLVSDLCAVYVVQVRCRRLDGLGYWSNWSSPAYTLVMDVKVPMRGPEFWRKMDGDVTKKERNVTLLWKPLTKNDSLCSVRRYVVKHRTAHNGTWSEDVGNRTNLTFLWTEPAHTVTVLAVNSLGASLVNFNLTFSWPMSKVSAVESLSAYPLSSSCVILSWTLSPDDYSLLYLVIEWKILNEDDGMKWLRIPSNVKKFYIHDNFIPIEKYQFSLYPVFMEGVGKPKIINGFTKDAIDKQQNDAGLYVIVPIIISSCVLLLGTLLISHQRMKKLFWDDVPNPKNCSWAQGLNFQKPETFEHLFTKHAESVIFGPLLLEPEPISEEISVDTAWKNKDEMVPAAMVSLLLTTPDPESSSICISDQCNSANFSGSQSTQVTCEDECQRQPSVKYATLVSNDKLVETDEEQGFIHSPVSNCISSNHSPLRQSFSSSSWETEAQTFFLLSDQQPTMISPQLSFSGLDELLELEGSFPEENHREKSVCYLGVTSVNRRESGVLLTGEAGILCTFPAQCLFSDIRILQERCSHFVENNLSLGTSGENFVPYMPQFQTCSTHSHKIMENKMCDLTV
Test: rNPY promoter luciferase reporter in PC12 cells transiently transfected with pMET7-mLRlo
Type: cell-based
Description: FIG. 1A. Leptin-induced NPY promoter activity in transiently transfected PC12 cells. PC12 cells were co-transfected with control vector (columns 1 and 2), pMET7-mLRsh (columns 3 and 4) or pMET7-mLRlo (columns 5 and 6) together with the pGL3-rNPYluc reporter. The different subcultures were mock stimulated (growth medium alone) or treated with mouse leptin (100 ng/ml) for 72 hours. Luciferase activity in cell lysates is shown; data represent the mean±standard deviation values of assays performed in triplicate.
FIG. 1B. Forskolin co-stimulation on leptin-induced pGL3-rNPY luciferase activity. PC12 cells were transiently co-transfected with pMET7-mLRlo and the pGL3-rNPYluc reporter. […]
In order to study leptin receptor signaling in a neuro-endocrine-related cell type, we transiently transfected PC12 cells with expression vectors for the long or the short isoform of the mouse leptin receptor (pMET7-mLRlo and pMET7-mLRsh respectively) and monitored gene induction by leptin. […]
Luciferase activity was measured in transfected cells by chemiluminescence. […] 70 μl of luciferase substrate buffer (20 mM Tricine; 1.07 mM (MgCO3)4Mg(OH)25H2O; 2.67 mM MgSO4; 0.1 mM EDTA; 33.3 mM DTT; 270 μM Coenzyme A (lithium salt); 470 μM Luciferin (Duchefa); 530 μM ATP, final pH 7.8) was added to 100 μl of cell lysate and measured for 5 seconds by TopCount.NXT Chemiluminescence Counter (Packard).

luciferase activity, rNPY reporter (PC12 cells co-transfected with pGL3-rNPYluc and pMET7-mLRlo, leptin alone): moderate stimulation
optimal co-stimulatory concentration (leptin plus forskolin, rNPY luciferase): 100 ng/mL
B1: leptin: mouse leptin (R&D Systems), ob gene product, used on PC12 cells at 100 ng/ml (protein)
chain: VPIQKVQDDTKTLIKTIVTRINDISHTQSVSAKQRVTGLDFIPGLHPILSLSKMDQTLAVYQQVLTSLPSQNVLQIANDLENLRDLLHLLAFSKSCSLPQTSGLQKPESLDGVLEASLYSTEVVALSRLQGSLQDILQQLDVSPEC
